Laboratory results from PMC6532764.
Read-outs that look alike come from different tables or passages of the source.

Key:
[1] = molecular target: T1, CspC (C-terminal His-tagged) (Staphylococcus aureus Newman, UniProt O33592 1-66); test: EMSA
[2] = molecular target: T1, CspC (C-terminal His-tagged); test: EMSA; remark: listed apart in the source

Binder	binding result [1]	binding result [2]
AAGTGTATAATGAAAG (ssDNA) [ssDNA3]	no binding	–
GTCGACTTTTTTTTTTTTTTTTTTTT (ssDNA) [ssDNA1]	–	binds
